Laboratory results reported in US20140242083A1 (Hoffmann-La Roche, published 2014).

T1: Cynomolgus MCSP D3 (cynomolgus, UniProt Q6UVK1 1582-2224 (human entry), limits assumed)
T1 construct: Soluble analyte in SPR
T1 chain: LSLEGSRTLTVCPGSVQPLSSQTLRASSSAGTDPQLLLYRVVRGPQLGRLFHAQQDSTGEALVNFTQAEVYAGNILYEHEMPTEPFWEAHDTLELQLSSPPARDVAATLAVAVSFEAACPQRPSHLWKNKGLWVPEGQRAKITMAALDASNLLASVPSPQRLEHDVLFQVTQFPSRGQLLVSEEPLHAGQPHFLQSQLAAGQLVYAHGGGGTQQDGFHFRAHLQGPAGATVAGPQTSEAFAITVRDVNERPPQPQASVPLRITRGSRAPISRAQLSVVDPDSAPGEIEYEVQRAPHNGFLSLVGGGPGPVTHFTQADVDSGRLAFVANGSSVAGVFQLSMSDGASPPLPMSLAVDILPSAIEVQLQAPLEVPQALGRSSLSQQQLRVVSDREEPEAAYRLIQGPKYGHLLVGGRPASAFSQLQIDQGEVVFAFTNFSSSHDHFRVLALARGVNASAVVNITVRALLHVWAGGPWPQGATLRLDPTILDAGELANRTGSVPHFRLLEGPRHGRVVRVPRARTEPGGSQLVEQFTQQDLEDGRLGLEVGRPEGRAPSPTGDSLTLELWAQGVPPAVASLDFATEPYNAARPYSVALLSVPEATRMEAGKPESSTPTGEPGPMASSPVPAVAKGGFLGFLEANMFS

T2: Human MCSP D3 (human, UniProt Q6UVK1 1582-2224)
T2 construct: Soluble analyte in SPR; The selection antigen was hu-MCSP(D3 domain)-avi-his; also called hu-MCSP(D3 domain)-avi-his
T2 sequence: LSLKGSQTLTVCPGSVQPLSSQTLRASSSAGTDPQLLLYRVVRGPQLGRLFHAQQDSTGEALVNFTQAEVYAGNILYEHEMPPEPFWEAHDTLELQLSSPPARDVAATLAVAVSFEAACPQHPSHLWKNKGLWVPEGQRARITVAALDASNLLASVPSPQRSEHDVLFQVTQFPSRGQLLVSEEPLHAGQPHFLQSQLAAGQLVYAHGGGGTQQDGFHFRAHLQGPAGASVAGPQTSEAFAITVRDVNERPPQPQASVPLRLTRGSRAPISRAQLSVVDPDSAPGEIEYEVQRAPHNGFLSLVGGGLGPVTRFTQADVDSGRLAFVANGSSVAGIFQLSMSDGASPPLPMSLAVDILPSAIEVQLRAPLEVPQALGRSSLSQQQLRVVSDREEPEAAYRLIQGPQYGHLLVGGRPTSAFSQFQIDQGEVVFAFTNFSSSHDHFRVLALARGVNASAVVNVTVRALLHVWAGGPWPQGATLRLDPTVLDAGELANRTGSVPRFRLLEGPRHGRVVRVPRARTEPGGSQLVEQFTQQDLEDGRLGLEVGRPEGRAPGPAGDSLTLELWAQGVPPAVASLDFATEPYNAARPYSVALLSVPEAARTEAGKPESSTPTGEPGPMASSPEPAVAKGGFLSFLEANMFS


Columns and labels:
Cynomolgus MCSP D3 = biological target: T1, Cynomolgus MCSP D3; test: SPR Biacore T200, 25 C, IgG captured on anti-human Fab, MCSP D3 as analyte, 1:1 Langmuir fit
Method: (§1) IgGs were captured on a CM5 sensorchip surface with immobilized anti human Fab. Capture IgG was coupled to the sensorchip surface by direct immobilization of around 10,000 resonance units (RU) at pH 5.0 using the standard amine coupling kit (Biacore, Freiburg/Germany). IgGs are captured for 60 s at 30 nM with 10 μl/min. Human and cynomolgus MCSP D3 were passed at a concentration of 0.49-1000 nM with a flowrate of 30 μl/min through the flow cells over 180 s. The dissociation is monitored for 210 s. Bulk refractive index differences were corrected for by subtracting the response obtained on reference flow cell. Here, the antigens were flown over a surface with immobilized anti-human Fab antibody but on which HBS-EP has been injected rather than anti MCSP IgGs.

Human MCSP D3 = biological target: T2, Human MCSP D3; test: as above
Method: as §1

| Binder | Kd (Cynomolgus MCSP D3) | Kd (Human MCSP D3) |
| --- | --- | --- |
| M4-3 ML2 (parental) (antibody, human IgG1, kappa, V domains shown, Non-matured parental humanized IgG; also called humanized antibody M4-3 ML2) VH: QVQLQESGPGLVKPSQTLSLTCTVSGGSITSGYYWNWIRQHPGKGLEWIGYITYDGSNNYNPSLKSRVTISRDTSKNQFSLKLSSVTAADTAVYYCADFDYWGQGTLVTVSS VL: DIQMTQSPSSLSASVGDRVTITCRASQGIRNYLNWYQQKPGKAPKLLIYYTSSLHSGVPSRFSGSGSGTDFTLTISSLQPEDFATYYCQQYSKLPWTFGQGTKVEIKR | 82.5 nM | 24.2 nM |
| M4-3 (C1) ML2 (antibody, human IgG1, V domains shown) VH: QVQLQESGPGLVKPSQTLSLTCTVSGGSITSGYYWNWIRQHPGKGLEWIGYITFDGSNNYNPSLKSRVTISRDTSKNQFSLKLSSVTAADTAVYYCADFDYWGQGTLVTVSS VL: DIQMTQSPSSLSASVGDRVTITCRASQGIRNYLNWYQQKPGKAPKLLIYYTSSLHSGVPSRFSGSGSGTDFTLTISSLQPEDFATYYCQQYSKLPWTFGQGTKVEIK | 9.8 nM | 7.2 nM |
| M4-3 (A7) ML2 (E10) (antibody, human IgG1, V domains shown) VH: QVQLQESGPGLVKPSQTLSLTCTVSGGSITDGYYWNWIRQHPGKGLEWIGYITFDGRNNYNPSLKSRVTISRDTSKNQFSLKLSSVTAADTAVYYCADFDYWGQGTLVTVSS VL: DIQMTQSPSSLSASVGDRVTITCRASYGIRGYLNWYQQKPGKAPKLLIYYTSSLHSGVPSRFSGSGSGTDFTLTISSLQPEDFATYHCQQYSKLPWTFGQGTKVEIK | 8.5 nM | 3.1 nM |
| M4-3 ML2 (E10) (antibody, human IgG1, V domains shown) VH: QVQLQESGPGLVKPSQTLSLTCTVSGGSITSGYYWNWIRQHPGKGLEWIGYITYDGSNNYNPSLKSRVTISRDTSKNQFSLKLSSVTAADTAVYYCADFDYWGQGTLVTVSS VL: DIQMTQSPSSLSASVGDRVTITCRASYGIRGYLNWYQQKPGKAPKLLIYYTSSLHSGVPSRFSGSGSGTDFTLTISSLQPEDFATYHCQQYSKLPWTFGQGTKVEIK | 62.8 nM | 21.4 nM |
| M4-3 ML2 (C5/G3) (antibody, human IgG1, V domains shown) VH: QVQLQESGPGLVKPSQTLSLTCTVSGGSITSGYYWNWIRQHPGKGLEWIGYITYDGSNNYNPSLKSRVTISRDTSKNQFSLKLSSVTAADTAVYYCADFDYWGQGTLVTVSS VL: DIQMTQSPSSLSASVGDRVTITCRASRGIREYLNWYQQKPGKAPKLLIYYTGSLHSGVPSRFSGSGSGTDFTLTISSLQPEDFATYYCQQYSALPWTFGQGTKVEIK | 12.8 nM | 4.2 nM |
| M4-3 ML2 (E10/G3) (antibody, human IgG1, V domains shown) VH: QVQLQESGPGLVKPSQTLSLTCTVSGGSITSGYYWNWIRQHPGKGLEWIGYITYDGSNNYNPSLKSRVTISRDTSKNQFSLKLSSVTAADTAVYYCADFDYWGQGTLVTVSS VL: DIQMTQSPSSLSASVGDRVTITCRASYGIRGYLNWYQQKPGKAPKLLIYYTSSLHSGVPSRFSGSGSGTDFTLTISSLQPEDFATYHCQQYSALPWTFGQGTKVEIK | 12.2 nM | 5.5 nM |
| M4-3 (A7) ML2 (C5) (antibody, human IgG1, V domains shown) VH: QVQLQESGPGLVKPSQTLSLTCTVSGGSITDGYYWNWIRQHPGKGLEWIGYITFDGRNNYNPSLKSRVTISRDTSKNQFSLKLSSVTAADTAVYYCADFDYWGQGTLVTVSS VL: DIQMTQSPSSLSASVGDRVTITCRASRGIREYLNWYQQKPGKAPKLLIYYTGSLHSGVPSRFSGSGSGTDFTLTISSLQPEDFATYYCQQYSELPWTFGQGTKVEIK | 1.1 nM | 0.002 nM |
| M4-3 (C1) ML2 (C5) (antibody, human IgG1, V domains shown) VH: QVQLQESGPGLVKPSQTLSLTCTVSGGSITSGYYWNWIRQHPGKGLEWIGYITFDGSNNYNPSLKSRVTISRDTSKNQFSLKLSSVTAADTAVYYCADFDYWGQGTLVTVSS VL: DIQMTQSPSSLSASVGDRVTITCRASRGIREYLNWYQQKPGKAPKLLIYYTGSLHSGVPSRFSGSGSGTDFTLTISSLQPEDFATYYCQQYSELPWTFGQGTKVEIK | 0.12 nM | 0.003 nM |

The remaining lines, values ahead:

| Kd (Cynomolgus MCSP D3) | Kd (Human MCSP D3) | Binder |
| --- | --- | --- |
| 9.9 nM | 12.6 nM | M4-3 (B7) ML2 (antibody, human IgG1, V domains shown) VH: QVQLQESGPGLVKPSQTLSLTCTVSGGSITSGYYWNWIRQHPGKGLEWIGYITFDGINNYNPSLKSRVTISRDTSKNQFSLKLSSVTAADTAVYYCADFDYWGQGTLVTVSS VL: DIQMTQSPSSLSASVGDRVTITCRASQGIRNYLNWYQQKPGKAPKLLIYYTSSLHSGVPSRFSGSGSGTDFTLTISSLQPEDFATYYCQQYSKLPWTFGQGTKVEIK |
| 1.3 nM | 1.6 nM | M4-3 (C1) ML2 (G3) (antibody, human IgG1, kappa, V domains shown) VH: QVQLQESGPGLVKPSQTLSLTCTVSGGSITSGYYWNWIRQHPGKGLEWIGYITFDGSNNYNPSLKSRVTISRDTSKNQFSLKLSSVTAADTAVYYCADFDYWGQGTLVTVSS VL: DIQMTQSPSSLSASVGDRVTITCRASQGIRNYLNWYQQKPGKAPKLLIYYTSSLHSGVPSRFSGSGSGTDYTLTISSLQPEDFATYYCQQYSALPWTFGQGTKVEIKR |
| 4.5 nM | 3.9 nM | M4-3 (C1) ML2 (E10) (antibody, human IgG1, V domains shown) VH: QVQLQESGPGLVKPSQTLSLTCTVSGGSITSGYYWNWIRQHPGKGLEWIGYITFDGSNNYNPSLKSRVTISRDTSKNQFSLKLSSVTAADTAVYYCADFDYWGQGTLVTVSS VL: DIQMTQSPSSLSASVGDRVTITCRASYGIRGYLNWYQQKPGKAPKLLIYYTSSLHSGVPSRFSGSGSGTDFTLTISSLQPEDFATYHCQQYSKLPWTFGQGTKVEIK |
| 1.5 nM | 0.009 nM | M4-3 (A7) ML2 (G3) (antibody, human IgG1, V domains shown) VH: QVQLQESGPGLVKPSQTLSLTCTVSGGSITDGYYWNWIRQHPGKGLEWIGYITFDGRNNYNPSLKSRVTISRDTSKNQFSLKLSSVTAADTAVYYCADFDYWGQGTLVTVSS VL: DIQMTQSPSSLSASVGDRVTITCRASQGIRNYLNWYQQKPGKAPKLLIYYTSSLHSGVPSRFSGSGSGTDYTLTISSLQPEDFATYYCQQYSALPWTFGQGTKVEIK |
| 28.8 nM | 19.2 nM | M4-3 (B8) ML2 (antibody, human IgG1, V domains shown) VH: QVQLQESGPGLVKPSQTLSLTCTVSGGSITSGYYWNWIRQHPGKGLEWIGYITFDGRNNYNPSLKSRVTISRDTSKNQFSLKLSSVTAADTAVYYCADFDYWGQGTLVTVSS VL: DIQMTQSPSSLSASVGDRVTITCRASQGIRNYLNWYQQKPGKAPKLLIYYTSSLHSGVPSRFSGSGSGTDFTLTISSLQPEDFATYYCQQYSKLPWTFGQGTKVEIK |
| 5.7 nM | 0.8 nM | M4-3 ML2 (C5) (antibody, human IgG1, V domains shown) VH: QVQLQESGPGLVKPSQTLSLTCTVSGGSITSGYYWNWIRQHPGKGLEWIGYITYDGSNNYNPSLKSRVTISRDTSKNQFSLKLSSVTAADTAVYYCADFDYWGQGTLVTVSS VL: DIQMTQSPSSLSASVGDRVTITCRASRGIREYLNWYQQKPGKAPKLLIYYTGSLHSGVPSRFSGSGSGTDFTLTISSLQPEDFATYYCQQYSELPWTFGQGTKVEIK |
| 24.6 nM | 15.1 nM | M4-3 (D6) ML2 (antibody, human IgG1, V domains shown) VH: QVQLQESGPGLVKPSQTLSLTCTVSGGSITSGYYWNWIRQHPGKGLEWIGYITFDGKNNYNPSLKSRVTISRDTSKNQFSLKLSSVTAADTAVYYCADFDYWGQGTLVTVSS VL: DIQMTQSPSSLSASVGDRVTITCRASQGIRNYLNWYQQKPGKAPKLLIYYTSSLHSGVPSRFSGSGSGTDFTLTISSLQPEDFATYYCQQYSKLPWTFGQGTKVEIK |
| 16.3 nM | 7.1 nM | M4-3 (A7) ML2 (antibody, human IgG1, V domains shown) VH: QVQLQESGPGLVKPSQTLSLTCTVSGGSITDGYYWNWIRQHPGKGLEWIGYITFDGRNNYNPSLKSRVTISRDTSKNQFSLKLSSVTAADTAVYYCADFDYWGQGTLVTVSS VL: DIQMTQSPSSLSASVGDRVTITCRASQGIRNYLNWYQQKPGKAPKLLIYYTSSLHSGVPSRFSGSGSGTDFTLTISSLQPEDFATYYCQQYSKLPWTFGQGTKVEIK |
